Results: PMC12866175 (European journal of nuclear medicine and molecular imaging, 2021)

Experiments:
[1] = system: non-tumor-bearing BALB/c mice; assay: Toxicity, single intravenous injection, 5 months; assay type: in vivo
[2] = design: species or system BALB/c mice; conditions: mouse, in vivo

In the case of `C[C@@H](O)[C@H](NC(=O)[C@@H]1CSSC[C@H](NC(=O)[C@@H](Cc2ccccc2)NC(=O)CN2CCN(CC(=O)O)CCN(CC(=O)O)CCN(CC(=O)O)CC2)C(=O)N[C@@H](Cc2ccc(O)cc2)C(=O)N[C@H](Cc2c[nH]c3ccccc23)C(=O)N[C@@H](CCCCN)C(=O)N[C@@H]([C@@H](C)O)C(=O)N1)C(=O)O` [[^225Ac]Ac-DOTA-TATE, metal not drawn], the “ALKP among the cohorts” value ([1]; mouse, in vivo) is reported as “No significant differences”, the “ALT among the cohorts” value ([1]; mouse, in vivo) is reported as “No significant differences” and the “AST among the cohorts” value ([1]; mouse, in vivo) is reported as “No significant differences”. The “Blood BUN” value ([1]; mouse, in vivo) was “in the normal range”, the Blood creatinine ([1]; mouse, in vivo) was “in the normal range” and the “acute kidney damage by pathology” value ([1]; mouse, in vivo) was “no acute kidney damage”. The “damage in the liver or other tissues by pathology” value ([1]; mouse, in vivo) was “no treatment related damage”, the survival ([1]; to 5 months p.i.) was “all animals survived” and the “clearance of activity from the tissues” value [2] was “largely cleared”.
